Results on 41 sequences are retold here after the nanobody polyreactivity screen of Harvey et al. (2022).

A short description of this series: yeast display, Sf9 membrane polyspecificity reagent, FACS + sequencing; frameworks hold sequencing errors. In outline: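 Polyreactivity labels are assigned by the sorting gate from which each nanobody was recovered. The gates were low and high (top ~1%), set on anti-HA fluorescence for expression and streptavidin fluorescence for reagent binding. Before sorting, galactose-induced (36–48 hours) yeast display cells were stained for 1 hour at 4 °C with 10% biotinylated, detergent-solubilized Sf9 membrane reagent.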
In the case of “QVHLVDSGGGLVQAGGSLRLSCAASGRTFQVYTMGWSRQAPGKERELVAAITWNGGRTRYADSVKGRFTISRDNAKNTVYLQMTSLKPEDTAVYYCNAGNWITARAGFNDWGQGTQVTVSS”, the “polyreactivity (PSR sort gate)” value is “high polyreactivity”.
Under “QVHLVDSGGGLVQAGGSLRLSCAASGRTSIRYAMAWYRQAPGKERELVAAITYAAGSTYYADSVTGRFTISRDNAKNTVYLQMNSLKPEDTAVYYCNARVYYHYDFWGQGTQVTVSS” stands “high polyreactivity”; under “QVHLVDSGGGLVQAGGSLRLSCAASGSTSGTNAMGWYRQAPGKERELVAGISYRGGSTYYADSVKGRFTISRDNAKNTVYLQMNSLKPEDTAVYYCAARKLKYRREYWGQGTQVTVSS”, “high polyreactivity”; under “QVHLVDSGGGLVQAGGSLRLSCSASGLIFSGYAMRWYRQAPGKERELVAAITRRGSRTYYADSVTGRFTISRDKAKNTVYLQMNSLKPEDTAVYYCAADRFQGRDDYWGQGTQVTVSS”, “high polyreactivity”.
Under “QVHLVESAAGFVQAGGSLRLSGAASGFILWYYTMGWYRQAPGKERELVAVIDWSGDSTYADSVKGRFTISLDNAKNSVYLQMNSLIPVDTAVYYWNADYFVVWARLEFNYWGQGTQVTVSS” stands “low polyreactivity”; under “QVHLVESAGGLVQAGGSLRLRCDASGRTFVLYTMGWYRQAPGKERELVAAIYGSGGRTYYADSVKGRLTISRDNAKNTVYLQMNSLKPEDTAVYYCAAYCQGLPLYGYWGQGTQVTVSS”, “high polyreactivity”; under “QVHLVESCGGLVQAGGSLRLSCAASGITFWNYAMGRYRQAPGKETELVAAISYSGGSTYYADSVKGRFTISRDNAKNTFYLQMNSLKPEDTGVYYCAATLPTNWVRYDYWGQGTQVTVSS”, “low polyreactivity”.
To “QVHLVESGGCLVQAGGSLRLSCAASGRIYRYAMGWYRQAPGKERELVAVITRRGDGTYYADSVKGRFTISRDNAKNTVYLQMNSLKPEDTAVYYCNADQSYKRPWPYDYWGQGTQVTVSS” belongs “high polyreactivity”; to “QVHLVESGGGIVQAGGSLRLSCAASGSIFGKNVMGWYRHAPGKERQLVAAITSGASTYYADSVKGRFTISRDNAKNTVYLQMNSLKPEDTPVYYCAARRWRKYYSGYNYWGQGTQVTVSS”, “high polyreactivity”.
As to “QVHLVESGGGLDQAGGSLRLSCAASGSISLIYAMGWYRQAPGKERELVAAITSSGGSTYYADSVKGRFTISRDNAKNTVYLQMNSLKREDTAVYYCAAERWTRRHYSGNDYWGQGTQVTVSS”, the “polyreactivity (PSR sort gate)” value is “low polyreactivity”.
Under “QVHLVESGGGLDQAGGSLRLSCAASGSTDGPYARGWSRQATGKERELVATINSSGSTNYADSLKGRFTISRDNAKNTVYLQMHSLKTEDTAVYYSASLHSYYWNDYWGQGTQVTVSS” stands “low polyreactivity”.
To “QVHLVESGGGLDQAGGTLRLSCAATGSIIQSYAMGWYRQAPGKESELVAAITARGTSTYYADSVKGRFTISRDNAKNTVYLQMNSLKPEETAVYYCTTDRSRSPGDVECQSDIKRDYWGQGTQVTVSS” belongs “low polyreactivity”; to “QVHLVESGGGLFQAGGSLRISCAASGSIFRFNVMGWYRQAPGKERELVAAITRGDSTNYADSVKGRFTISRDNAKNTVYLQMNSLKPEVTAVYYCAAGFYYYLRDHDYWGQGTQVTVSS”, “low polyreactivity”; to “QVHLVESGGGLFQAGGSLRLRCAASGRIFRYNTMGWYRQAPGKERELVAAINSSGGRTYYADSVKGRFTISRDNAKNTVYLQMNSLKPDDTAVYYCAAVIYVLSGPGYDYWGQGTQVTVSE”, “high polyreactivity”.
To “QVHLVESGGGLFQAGGSLSISSASSGRTFYWYPMGWYRQAPGKERELVAAITGMGTRTYYADSVKGRFTISRDNAKNTDYLQMNSLKPEDTAVYYCNTRYYGGFDSWGQGTQVTVSS” belongs “high polyreactivity”; to “QVHLVESGGGLLLAGGSLRLTCAASGSTFYSYDKGWYRQAPGKERELVAAISWNGGSTYYEDSVKGRFTISRDNAKNTVYLPMNSLKPEDTAVYYCAALRYVHGYDYWGQGTQVSVSS”, “high polyreactivity”; to “QVHLVESGGGLLQAGGILSLSCAASGITIIVYVMGWYRQAPGKERELVATITYDDSTYADSVKGRFTISRDNAKNTVYFQMNSLKPEDTAVYYDYWGQGTQVTVSS”, “low polyreactivity”.
As for “QVHLVESGGGLLQAGGSLPLSCAASGSIFYSYAMGWYRQAPGKVRELVAVISWSGGSTYYADSVKGRFTISRDNAKNTVYLQMNSLKPEDTAVYYCAADQGWEFDYWGQCTQVTVSS”, the “polyreactivity (PSR sort gate)” value is “low polyreactivity”.
To “QVHLVESGGGLLQAGGSLRLSCAASGSTFYSYAMGWYRQAPGKERELVAAITYSDGDTYYADSVKGRFTISRDNAKNTVYLQMNSLKPEDTAVYYCAAEYQGQPGTGNLEYWGQGTQVTVSS” belongs “low polyreactivity”; to “QVHLVESGGGLLQAGGSLRLSSAASGSTFPFNAMGWYRPAPGKERELVAAIDDNGGTTYYADSVKGRFTISRDNAKNTFYLQMISLKPEDPAVYYCAAEVDTVRDCVQGMDYCGQGTQVTVSS”, “low polyreactivity”.
To “QVHLVESGGGLVEAGGSLRLSCADSGNIFAWYAMGWYRQAPGKERELVADISSLGGSTYYADSVKGRFTISRDNATNTVYLQMNSLKPEDTEVYYCAAVWYWTQDYDYWGQGTQVTVSS” belongs “low polyreactivity”; to “QVHLVESGGGLVHAGGSLRLSSAASGSIFGANTMGWYRQAPGKERELVAGITSGARTYYADSVKGRFTISRDNAKNTVYLQMNSLKPEDTAVYYCAAKYAWRRYGFWGQGTQVTVSS”, “high polyreactivity”.
Under “QVHLVESGGGLVHAGGSLRLTCAASGITSLRYAMGWYRQAPGKEREFVAAIRTIGGSTYYADSVKGRFTISRDNAKNTVYLEMNSLKPEDTPVYYCAALYFLYRSGSSHLDSWGQGTQVTVSS” stands “high polyreactivity”; under “QVHLVESGGGLVQAAGILRLSSAPSGSIFPYYAMGWYRQAPGKEREFVAAINYAGGSTYYADSVKGRFTISRDNAKNTVYLQMNSLKPEDTAVYYCNARTFGPNGKHRYGYWGQGTQVTVSS”, “high polyreactivity”; under “QVHLVESGGGLVQAGCSLRLSCAASGFTYYYYAIGWYRQAPGTEMELVAAISSGGSTNYADSVKGRFTISRDNANNTVYLQMNSLKPEDTAVYYCAATQPYWWAYRYDYWGQGTKVTVSS”, “low polyreactivity”.
Consider “QVHLVESGGGLVQAGGCLRLSCAASGSIVGYNTMGWYRQAPGKERALVAAISSSGTSTNYPDSVKGRFTISRDNAKNTVYLQMNSLKPDDTAVFYCNTVLRVWSRSGYDYWGQGSQVTVSS”, for which the “polyreactivity (PSR sort gate)” value is given as “high polyreactivity”.
Under “QVHLVESGGGLVQAGGILRLSCAASGSIFLYYAMGWYRQAPGKERELVAAITGGGGTNYADSVKGRFTISRDNAKNTFYLQMNSLKPEDTAVYYCGADPSGQFPYSYYNYDYDYWGQGTQVTVSS” stands “low polyreactivity”.
To “QVHLVESGGGLVQAGGRLRLSCAASGFTYYRYTMGWYRQAPGKERELVAAISWNGGRTYYADSVKGRFTISRDNAKNTVYLQMNSLKPEDTAVYYCAAVQHYTNRYPAVDYWGQGTQVTVSS” belongs “high polyreactivity”; to “QVHLVESGGGLVQAGGRLRLSCAASGNTFYQYAMGWYRQAPGKERELVAAISSSGGSTYYADTVKGRFTISRDNAKNTVYLQMNSLKPEDTGVYYCATDKWYGYYYWGQGTQVTVSS”, “low polyreactivity”; to “QVHLVESGGGLVQAGGRLRLSCAASGRIFYTYAMGWYRQAPGKERELVAAITSGGSTYYADSVKGRFTISRDNAKNTVYLQMNSLKPEDTAVYYCNKVSYYRNEYWGQGSQVTVSS”, “high polyreactivity”.
To “QVHLVESGGGLVQAGGSHRLSCAASGFTIHRYAMGWYRQAPGKERELVAGITRRSGSTFYADSVKGRFTISRDNAKNTVFLQMNSLKPEDTAVYYCAATVPGLHWIYDYWGQGTQVTVSS” belongs “high polyreactivity”; to “QVHLVESGGGLVQAGGSLGLSCAASGNIFSSNAMGWYTQAPGKERELVDAITRSGGSTYYADSVKGRFTISRDNAKKTVYLQLNSQKPEDTAVYYGAARHYPRNSWGYDYWGQGTQVTVSS”, “high polyreactivity”; to “QVHLVESGGGLVQAGGSLLLSCAASGSTQLGNAMGWYRQAPGKERELVAAISTSGDSTNYADSVKGRFTISRDNAKNTVYLEMNSLKPEDTAVYYCNAGGYLNSDVDRVGYWGQGTQVTVSS”, “low polyreactivity”.
For the sequence “QVHLVESGGGLVQAGGSLRISCAASGSIFKGYAMGWYRQAPGKERELVAAITIDGSTYYADSVKGRFTISRDNAKNTVYLQMNSLKPEDTAVYYCDAVYLWYGSWPLHFAAYDYWGQGTQVTVSS”, the “polyreactivity (PSR sort gate)” value is recorded as “low polyreactivity”.
For the sequence “QVHLVESGGGLVQAGGSLRISCAASGSNFSYYARGWYRQAPGKESELVAAISQSGGTTYYADSVKGRFTISRDHAKNTVYLQMNCLKPEDTAVYYCAARAPSSFDTQYYYWGLGTQVTVSS”, the “polyreactivity (PSR sort gate)” value is listed as “low polyreactivity”.
Regarding “QVHLVESGGGLVQAGGSLRISCAASGSSFSIYAMGSYRQAPGKERELVAAITCTVGSTYYADSVKGRFTISRDIAKYTVYLPLNSLKPEDTAVYYFAARQVNYDYDFWGQGTQVTVSS”, the “polyreactivity (PSR sort gate)” value was “low polyreactivity”.
Under “QVHLVESGGGLVQAGGSLRISCAATGYTFLYNAMGWYRQAPGKEREFVAGIRRSVGSTYYADSVKGRFTISRDNAKNTVYLQMNSMTREDTAVYYCALVPALYRYRVGTYAYDYWGQGTQVTVSS” stands “low polyreactivity”.
To “QVHLVESGGGLVQAGGSLRLCCAASGITFQVYAKGCYRPAPGKERELVAAINWSGTRTYYADSVKGRFTISRDNAKNTVYLQMNSLKPEDTAVYYCAAAERSLGYYYWGQGTQVTVTS” belongs “high polyreactivity”.
On to “QVHLVESGGGLVQAGGSLRLICAASGFTFDFYAMGWYRQAPGKERELVAAISKNDGTTYYADSVKGRFTISRDNAKNTVYLQMYSLKPEDTAVYYCAAESGYPVYTYVSSGDYWGQGTQVTVSS”, for which the “polyreactivity (PSR sort gate)” value is given as “low polyreactivity”.
With “QVHLVESGGGLVQAGGSLRLICAASGRIFIVYAMGWYRQAPGKERELVAVITGGGSTNYADSVKGRFTISRDNAKNSVYLQMNSLKPEDTAVYYCATEGYGHGGETVGGVYSDLGYWGQGTQVTVSS”, the “polyreactivity (PSR sort gate)” value was “low polyreactivity”.
Take “QVHLVESGGGLVQAGGSLRLICAASGSIYTPNAMGWYRQAPGKETELVAAISSSSDRTYYADSVTGRFTISRDNAKNTFYLQMNSLKPEDTEVYYCNADLRGHGRGTDQYIFDYWGQGTQVTVSS”: the “polyreactivity (PSR sort gate)” value was “high polyreactivity”.
